One series concerns BT-20 cells. Briefly: MTT cell viability assay. The format is cell-based, human. To be noted: highest conjugate concentration (32 nM). The protocol:
(§1) In the MTT assay, cells were seeded in 96-well plates at a density of 1000-5000 cells/well. The cells were plated with serial dilutions of either naked muDS6 or muDS6-DM1 immunoconjugate in 200 μl of culture media. The samples were run in triplicate. The cells and antibody/conjugate mixtures were then incubated for 2-7 d, at which time cell viability was assessed by an MTT ([3(4,5-dimethylthiazol-2-yl)-2,5-diphenyl tetrazolium bromide)] assay. MTT (50 μg/well) was added to the culture supernatant and allowed to incubate for 3-4 h at 37° C. The media was removed and the MTT formazan was solubilized in DMSO (175 μl/well). The absorbance at 540-545 nm was measured. […] The wells with the highest concentrations of conjugate contained no viable cells as compared to naked antibody which had no effect (FIGS. 21 and 24).
In general terms: Tetrazolium dyes change colour on reduction, which living cells bring about.

A further series has as its system HPAC cells. The series can be described thus: MTT cell viability assay. In kind it is cell-based, human. To be noted: highest conjugate concentration (32 nM). Here is the method: as §1
A further series relates to OVCAR5 cells. Briefly: MTT cell viability assay. In kind it is cell-based, human. To be noted: highest conjugate concentration (32 nM). The protocol:
as §1

The next series deals with HPAC tumor xenografts. Briefly: Subcutaneous HPAC xenograft efficacy study. The format is in vivo, SCID mice. The protocol:
OVCAR5 (FIG. 26A and FIG. 26B), TOV-21 G (FIG. 26C and FIG. 26D), HPAC (FIG. 26E and FIG. 26F), and HeLa (FIG. 26G and FIG. 26H) cells were inoculated on day 0, and immunoconjugate treatments were given on day 6 and 13. PBS control animals were euthanized once tumor volumes exceeded 1000 mm^3. The conjugate was given at a dose of 600 μg/kg DM1, corresponding to an antibody concentration 27.7 mg/kg. Tumor volume (FIG. 26A, FIG. 26C, FIG. 26E, and FIG. 26G) and body weight (FIG. 26B, FIG. 26D, FIG. 26F, and FIG. 26H) of the mice were monitored during the course of the study.
muDS6-DM 1 activity was further tested on a panel of subcutaneous xenograft models (see FIG. 26). […] OVCAR5 cells and TOV-21 G are ovarian tumor cell lines; HPAC is a pancreatic tumor cell line; HeLa is a cervical tumor cell line. OVCAR5 and TOV-21G cells have low surface CA6 expression; HeLa cells have an intermediate level of surface CA6 expression; HPAC cells have a high CA6 density of surface expression. TOV-21G and HPAC cells are maytansine sensitive; OVCAR5 and HeLa cells are 2-7-fold less maytansine sensitive.
The 4 cell-lines were grown in vitro, collected, and 1×10^7 cells in a 100 μL of serum free medium were injected under the right shoulder of each mouse (6 mice per model) and allowed to grow for 6 days to an average tumor volume of 57.6±6.7 and 90.2±13.4 mm^3 for the test and control groups respectively of OVCAR5, 147.1±29.6 and 176.2±18.9 mm^3 for the test and control groups respectively of HPAC, 194.3±37.2 and 201.7±71.7 mm^3 for the test and control groups respectively of HeLa, and 96.6±22.8 and 155.6±13.4 mm^3 for the test and control groups respectively of TOV-21G, at which time drug treatment was initiated. For each model three control mice were treated with two weekly doses of PBS and three test mice were treated with two weekly doses of conjugate (600 μg/kg DM1) intravenously. Toxic responses were monitored daily during the treatment and tumor volumes and body weights were monitored throughout the study. […]

The subject of another series is OVCAR5 IP tumors. The series can be described thus: Intraperitoneal OVCAR5 tumor model. The format is in vivo, SCID mice. To be noted: 600 μg/kg DM1 weekly for 2 weeks. The protocol:
Tumor cells were injected intraperitoneally on day 0, and immunoconjugate treatments were given on day 6 and 13. Animals were euthanized once body weight loss exceeded 20%.
Human ovarian cancer is largely a disease of the peritoneum. OVCAR5 cells grow aggressively as an intraperitoneal (IP) model in SCID mice forming tumor nodules and producing ascites in a manner similar to human disease. […] OVCAR5 cells were grown in vitro, harvested and 1×10^7 cells in 100 μL of serum free medium were injected intraperitoneally. Tumors were allowed to grow for 6 days at which time treatment was initiated. Mice were treated weekly for 2 weeks with either PBS or DS6-DM1 conjugate at a dose of 600 μg/kg DM1 and monitored for weight loss resulting from peritoneal disease. By day 28, the PBS group of mice had lost greater than 20% body weight and were euthanized. The treated group was sacrificed at day 45 after exceeding 20% body weight loss.

The next series relates to KB cells. Briefly: Flow cytometry binding assay. Details: species or system human. To be noted: KB. Here is the method: Cells were maintained in a 37° C., 5% CO2 humidified incubator.
Cells ([…]) were incubated, on ice for 3-4 h, with serially diluted concentrations of the DS6 antibody prepared in FACS buffer (2% goat serum, RPMI) into 96-well plates. The cells were spun down in a table top centrifuge at 1500 rpm for 5 min at 4° C. After removing the media, the wells were then refilled with 150 μl of FACS buffer. The wash step was then repeated. FITC-labeled goat anti-mouse IgG (Jackson Immunoresearch) was diluted 1:100 to FACS buffer and incubated with the cells for 1 h on ice. The plate was covered in foil to prevent photobleaching of the signal. After two washes, the cells were fixed with 1% formaldehyde and analyzed on a flow cytometer.
The affinity of the purified huIgG was compared with muDS6 by flow cytometry. In the first set of experiments direct binding to a CA6-expressing cell line, KB, was measured. […] To confirm that the huDS6 versions retain the affinity of muDS6, competitive binding experiments were conducted. The advantage of this format is that the same detection system is used for both murine and human antibodies; that is biotin-muDS6/streptavidin-DTAF.
The binding was conducted essentially as described for FIG. 20 except that KB cells were used rather than CaOv-3 cells.
On the technique in general: Flow cytometry measures light scatter and fluorescence of single cells or particles in a stream.

The next series concerns Caov-3 cells. The series can be described thus: MTT cell viability assay. In kind it is cell-based, human. Here is the method:
as §1

[1] abbreviates: 600 μg/kg DM1, two weekly doses.

B1: DS6-DM1: muDS6 antibody modified with SPP and conjugated to the maytansinoid DM1 (conjugate)
VH: QAYLQQSGAELVRSGASVKMSCKASGYTFTSYNMHWVKQTPGQGLEWIGYIYPGNGATNYNQKFKGKATLTADPSSSTAYMQISSLTSEDSAVYFCARGDSVPFAYWGQGTLVTVSA
VL: QIVLTQSPAIMSASPGEKVTITCSAHSSVSFMHWFQQKPGTSPKLWIYSTSSLASGVPARFGGSGSGTSYSLTISRMEAEDAATYYCQQRSSFPLTFGAGTKLELKR
Take B1: the cells still viable entry with BT-20 cells is listed as “over 50%”. Further, the cells still viable entry with HPAC cells is on record as “over 50%”. For the same molecule, the cells still viable entry with OVCAR5 cells is on record as “over 50%”. In the series with HPAC tumor xenografts (setting [1]), the body weight entry is given as “no weight loss was observed” and the “tumor status at day 61” value was “tumor-free”. Moreover, the tumor regression entry in the series with HPAC tumor xenografts (600 μg/kg DM1 i.v., two weekly doses) was “complete tumor regression in all mice”. Also, in the series on OVCAR5 IP tumors, the “tumor growth delay (in words)” value is listed as “able to delay tumor growth” and the “visible signs of toxicity” value is listed as “no visible signs of toxicity”. Also, the “day of sacrifice after exceeding 20% body weight loss” value in the series on OVCAR5 IP tumors (PBS group day 28) stood at 45 days.

B2: DS6: murine anti-CA6 monoclonal antibody DS6 (ATCC deposit number PTA-4449) (antibody, V domains shown)
VH: B1 VH
VL: B1 VL
Take B2: the “MMF (average maximum relative mean fluorescence)” value with KB cells was determined as 119.56. Also, the “effect of naked antibody on cell viability” value in the series with Caov-3 cells was “no effect”.

The values above are taken from patent US8987424B2, “CA6 antigen-specific cytotoxic conjugate and methods of using the same” (ImmunoGen, Inc., priority 2003, dated 2015).
